How the values were obtained:
BSA蛋白 = molecular target: T1, BSA蛋白 (UniProt P02769 25-607); experiment: ELISA, BSA coated at 2 μg/mL, dilution series of B48, detected by anti-HA and HRP goat anti-mouse IgG
T1 construct: Control protein in the ELISA; also called 对照蛋白

BCMA蛋白 = molecular target: T2, BCMA蛋白 (human, UniProt Q02223 1-54); experiment: ELISA, BCMA coated at 2 μg/mL, dilution series of B48, detected by anti-HA and HRP goat anti-mouse IgG
T2 construct: extracellular domain; also called 抗原BCMA; B cell maturation antigen
T2 sequence (looked up): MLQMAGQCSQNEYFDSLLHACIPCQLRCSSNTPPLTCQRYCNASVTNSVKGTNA

T1 sequence (P02769 25-607 limits assumed): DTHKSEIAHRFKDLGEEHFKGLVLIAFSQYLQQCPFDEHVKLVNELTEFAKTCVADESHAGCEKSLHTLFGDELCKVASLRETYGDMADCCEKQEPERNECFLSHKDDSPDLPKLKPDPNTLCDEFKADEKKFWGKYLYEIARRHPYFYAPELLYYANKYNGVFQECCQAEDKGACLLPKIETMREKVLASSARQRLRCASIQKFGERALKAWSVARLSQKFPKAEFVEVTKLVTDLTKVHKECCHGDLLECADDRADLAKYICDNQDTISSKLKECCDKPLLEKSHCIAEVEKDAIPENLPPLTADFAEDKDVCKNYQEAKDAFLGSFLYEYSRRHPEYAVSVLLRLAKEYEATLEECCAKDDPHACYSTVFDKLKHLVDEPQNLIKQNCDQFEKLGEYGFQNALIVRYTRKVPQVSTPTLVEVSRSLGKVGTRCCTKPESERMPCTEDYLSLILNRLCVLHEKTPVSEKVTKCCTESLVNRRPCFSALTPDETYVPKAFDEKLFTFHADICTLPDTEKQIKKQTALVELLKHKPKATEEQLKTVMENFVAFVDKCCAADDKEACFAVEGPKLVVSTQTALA

binding result (BSA蛋白): no binding | EC50 (BCMA蛋白): 34 nM
B1: 抗BCMA单链抗体B48 (scFv)
scFv: QVQLVESGGDLVQPGGSLRLSCAASGFTFDDYAMHWVRQAPGKGLEWVSGISWNSGSIGYADSVKGRFTISRDNAKNSLYLQMNSLRAEDTALYYCAKIAGGAFDIWGQGTMVTVSSGGGGSGGGGSGGGGSDIRMTQSPSTLSASVGDRVTITCQASQNIGHFLAWYQHKPGKAPKLLIYAASTLQSGVPSRFSGSGSGTDFTLTISSLQPEDFGTYYCHHYVTVPLTFGQGTRVEIK
notes: Expressed in E. coli BL21 from pET-26b with an N-terminal pelB signal peptide (secreted to the periplasm); Purified protein carries C-terminal HA and 6xHis tags; also called B48单链抗体; not shown: C-terminal 6xHis tag from the vector pET-26b; vector residues between the insert

Reference: patent CN112851814A (XIAN YUFAN BIOTECHNOLOGIES CO LTD, dated 2021)
